# Laboratory results as given in patent publication US20250034594A1, “RNA-GUIDED GENOME RECOMBINEERING AT KILOBASE SCALE” (THE BOARD OF TRUSTEES OF THE LELAND STANFORD JUNIOR …, priority 2021, published 2025).
# B1: SSAP_245: SEQ ID NO: 414; Paenibacillus macquariensis subsp. defensor (protein, listed as Paenibacillus macquariensis)
# chain: SDKLLVIHKNLENLLDSKREAMPSNFNKTRFLQNCMTVLQDTRDIDKCDATSVARTMLKGAFLGLDFFNKECYAITYAGAVQFQTDYKGEKKLAKKYSVRPVRDIYAKLVKEGDDFKEEVKDGQQTIQFAPKPFNDGEVLGAFAVALFEDGGLVYEVMSKVDIETTRKNYSKQANGQAWTKSPGEMYKKTVLRRLCKNIELDFDTIEQAQAFEDSGDMDLNKEVKPPQVSPLNATVIDAEYTEIREGDPNATNQE
# B2: SSAP_86: SEQ ID NO: 255 (protein)
# chain: ADLTKTANGADLAAAIGGKQAETGRATAFDLVKSMEAEFAKALPRHVPVEQFMRTAVTELRQNADLQRSTSESLLGAFLTAARLGLEVGGPMGEFYLTPRFAKLPGQDQKAWQVVPIVGYRGLVKLARNAGVGAVKAWVVYEGDHFVEGANSERGPFFDFHPVPGDPAGRKEVGVLAVARLSGGDVQHTYLTIEQVEKRKARGSAGDKGPWATDRAAMIRKSGIRALAGELPQSTLLALARVVDEEVQTYVPGSLVDVGTGELEA
# B3: SSAP_90: SEQ ID NO: 259; Xenorhabdus poinarii (protein, listed as Xenorhabdus poinarii)
# chain: TNTPPLAQADLQKAQPQTKVAATKDQALIQFINKPSMKAQLAAALPRHMAPDRMIRIVTTEIRKTPALANCDMQSFVGAVVQCSQLGLEPGSALGHAYLLPFGNGKSKTGQSNVQLIIGYRGMIDLARRSGQIVSISARTVRDGDQFHYEYGLNENLTHIPGENEDAPITHVYAVARLQDGGVQFEVMTRKQVEKVREKSSAGNNGPWVTHWEEMAKKTVIRRLFKYLPVSIEMQKAVILDEKADANIDQDNAAIFEGEFEEVGNDG
# B4: SSAP_271: SEQ ID NO: 440; Nocardia ninae (protein, listed as Nocardia ninae)
# chain: AESISKEVARQANPLAVVAKYQNELGKSMPAAIRGDVGRWMMVAEMAVRKNPKLLSIVQADQGASLMRALIECARLGHEPGTKYFYLVPRGNQISGEEGYHGIIKRVLNSGHYQKVLARTVFERDEYSFDPLTDQLPTHVPASGERGKPVSAYAFALHWDGTPSTVAEASPERIAAAKAKSYGTDRKDSPWQSVTGVMYRKTAIRELEPYVHTSAEPQPRQDNAGSRGAVMDPSTYDDAEPLDADVLDITADQIAEHDGEGAL
# B5: SSAP_246: SEQ ID NO: 415; Anoxybacillus (protein, listed as Anoxybacillus sp.)
# chain: ATTQSLKNQIAKKQNSNIQQGVTLKQLLNSESMKKRFEEVLGKRAQQFATSILNLYNSEKMLQKCEPMSIISSAMVAASLDLPVDKNLGYMYIVPYGTTATPIMGYRGYIQLALRTGQYKHINVIEVYEGELQKWDRLTEEFEMDSKQKKSDVVVGYAAYFELINGFRKTVYWTREQIEAHRKKYSKSDFGWKNDFDAMAKKTVLKSLLSKWGILSIEMQNAFNEDEKEVDTKEVKDITSEVQEAEYIEAEAFEVPIETETPQQEEIVFDAQ
# Tests used:
# Type in all cases: cell-based
# [1] = test system: gene editing with Cas9 and dCas9; experiment: Screen of 322 new SSAP proteins, activity across all experiments (Cas9 and dCas9, Table 5); parameters: scale not given here
# Procedure, shortened: (§1)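 The 322 SSAP proteins were found in sequence data and then synthesized. Each was screened for gene editing activity when paired with Cas9 and with dCas9.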
# gene editing with Cas9 = experiment: Screen of 322 new SSAP proteins, gene editing activity with Cas9 (Table 5); parameters: Cas9 with SSAP activity: scale not given here
# Procedure, shortened: as §1
# gene editing with dCas9 = experiment: Screen of 322 new SSAP proteins, gene editing activity with dCas9 (Table 5); parameters: dCas9 with SSAP activity: scale not given here
# Procedure, shortened: as §1
Molecule,Activity across all experiments [1],Cas9 with SSAP activity (gene editing with Cas9),Cas9 with SSAP activity (normalized) (gene editing with Cas9),dCas9 with SSAP activity (gene editing with dCas9),dCas9 with SSAP activity (normalized) (gene editing with dCas9)
B1,−1.809,0.282,0.572,−3.899,−0.575
B2,−1.700,0.575,0.280,−3.974,−0.714
B3,−2.219,−0.504,−0.093,−3.935,−0.892
B4,−1.788,0.372,0.623,−3.947,−0.622
B5,−1.537,0.824,0.919,−3.897,−0.611
